According to patent US20190269793:

How the values were obtained:
Vaccinia virus K3 = biological target: T1, Vaccinia virus K3
T1 chain: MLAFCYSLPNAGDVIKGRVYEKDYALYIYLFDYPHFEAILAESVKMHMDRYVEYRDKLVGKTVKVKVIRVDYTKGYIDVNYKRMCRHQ

Vaccinia virus E3 = biological target: T2, Vaccinia virus E3
T2 chain: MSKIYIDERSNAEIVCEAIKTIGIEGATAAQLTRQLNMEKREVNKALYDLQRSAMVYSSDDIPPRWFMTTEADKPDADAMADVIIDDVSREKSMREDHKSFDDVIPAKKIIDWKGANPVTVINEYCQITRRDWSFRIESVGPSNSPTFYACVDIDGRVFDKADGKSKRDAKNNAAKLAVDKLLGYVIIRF

B1: RNA-dependent protein kinase (PKR) (protein)
chain: AGDLSAGFFMEELNTYRQKQGVVLKYQELPNSGPPHDRRFTFQVIIDGREFPEGEGRSKKEAKNAAAKLAVEILNKEKKAVSPLLLTTTNSSEGLSMGNYIGLINRIAQKKRLTVNYEQCASGVHGPEGFHYKCKMGQKEYSIGTGSTKQEAKQLAAKLAYLQILSEETSVKSDYLSSGSFATTCESQSNSLVTSTLASESSSEGDFSADTSEINSNSDSLNSSSLLMNGLRNNQRKAKRSLAPRFDLPDMKETKYTVDKRFGMDFKEIELIGSGGFGQVFKAKHRIDGKTYVIKRVKYNNEKAEREVKALAKLDHVNIVHYNGCWDGFDYDPETSDDSLESSDYDPENSKNSSRSKTKCLFIQMEFCDKGTLEQWIEKRRGEKLDKVLALELFEQITKGVDYIHSKKLIHRDLKPSNIFLVDTKQVKIGDFGLVTSLKNDGKRTRSKGTLRYMSPEQISSQDYGKEVDLYALGLILAELLHVCDTAFETSKFFTDLRDGIISDIFDKKEKTLLQKLLSKKPEDRPNTSEILRTLTVWKKSPEKNERHTC
PKR autophosphorylation (Western blot with phospho-PKR specific antibody) (Vaccinia virus K3): E3 and K3 reduce PKR autophosphorylation
PKR autophosphorylation (Western blot with phospho-PKR specific antibody) (Vaccinia virus E3): E3 and K3 reduce PKR autophosphorylation
